Test results reported in US20100209346A1.

Key:
Experiment in all cases: dot blot; antigen dilution series 100-0.01 pmol on nitrocellulose
[1] = molecular target: Aβ(1-42) fibril preparation of example 27 (human)
[2] = molecular target: Aβ(1-42) oligomer B preparation of example 6b (oligomers of human amyloid β(1-42) protein with apparent molecular weights of 38 kDa and 48 kDa) (human)
[3] = molecular target: HFIP-treated Aβ(1-42) monomer of example 1a (human)

monoclonal antibody 6E10 (Signet)
detection limit (minimum amount of antigen visible) [1]: 1 pmol | detection limit (minimum amount of antigen visible) [2]: 0.1 pmol | detection limit (minimum amount of antigen visible) [3]: 0.1 pmol
